From US20140030278A1 (published 2014) come the findings set out here.

The target of assay [1] is T1, Recombinant human TNF-alpha (human, UniProt P01375 77-233). Description: ELISA of unbound rhTNF-alpha after pre-incubation; printed as 4.095e-009 g/ml.
In assay [2] the target is T1, Recombinant human TNF-alpha. Description: ELISA of unbound rhTNF-alpha after pre-incubation; printed as 6.116e-009 g/ml. A general note: In an ELISA, binding on a coated surface is turned into a signal by an enzyme label.

T1 sequence (P01375 77-233): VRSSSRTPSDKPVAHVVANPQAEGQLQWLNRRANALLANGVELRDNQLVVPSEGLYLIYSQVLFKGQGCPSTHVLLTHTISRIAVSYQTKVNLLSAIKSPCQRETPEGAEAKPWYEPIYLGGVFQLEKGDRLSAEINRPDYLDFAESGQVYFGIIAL

B1: etanercept (ENBREL®), non-PEGylated (Fc fusion)
chain: LPAQVAFTPYAPEPGSTCRLREYYDQTAQMCCSKCSPGQHAKVFCTKTSDTVCDSCEDSTYTQLWNWVPECLSCGSRCSSDQVETQACTREQNRICTCRPGWYCALSKQEGCRLCAPLRKCRPGFGVARPGTETSDVVCKPCAPGTFSNTTSSTDICRPHQICNVVAIPGNASMDAVCTSTSPTRSMAPGAVHLPQPVSTRSQHTQPTPEPSTAPSTSFLLPMGPSPPAEGSTGDEPKSCDKTHTCPPCPAPELLGGPSVFLFPPKPKDTLMISRTPEVTCVVVDVSHEDPQVKFNWYVDGVQVHNAKTKPREQQYNSTYRVVSVLTVLHQNWLDGKEYKCKVSNKALPAPIEKTISKAKGQPREPQVYTLPPSREEMTKNQVSLTCLVKGFYPSDIAVEWESNGQPENNYKTTPPVLDSDGSFFLYSKLTVDKSRWQQGNVFSCSVMHEALHNHYTQKSLSLSPGK
Usually IC50 stands for the point on the concentration scale where inhibition reaches its midpoint. Regarding B1, the IC50 in assay [1] stood at 4.09 ng/mL.

B2: PEG20-etanercept (10 eq) (Fc fusion)
chain: B1 chain
modifications: 20 KDa PEG (PEG20) conjugated via NHS-ester PEG reagent at 10 times molar excess; sites not stated
In the case of B2, the IC50 in assay [2] came out at 6.12 ng/mL.
